Test results taken from patent publication US20120165244A1, “METHODS FOR BINDING LEWIS Y ANTIGEN” (priority 2008, published 2012).

Columns and labels:
RAW 264.7 cells = assay: Western blotting of LPS-induced signaling pathways in RAW 264.7 cells; type: cell-based, murine
Method: rTMD1 (0-50 μg/mL, equals 0-2.18 nmole/mL) pre-incubated without or with Escherichia coli (E. coli) LPS (LPS O111:B4, Sigma-Aldrich) in the absence or presence of Lewis Y (Le^y; Dextra Laboratories, Reading, UK) for 30 minutes was used to stimulate THP-1 or RAW 264.7 cells. Incubation period included 15 minutes for pIκB and IκB (B-9 and C-21, Santa Cruz Biotechnology, Santa Cruz, Calif., unless otherwise noted), 20 minutes for p38 (C-20) and pp38 (D-8), 30 minutes for ERK1/2 (K-23), pERK1/2 (E-4), lamin B2 (E-3, Zymed Laboratories, San Francisco, Calif.), NF-κB p50 (C-19) and NF-κB p65 nuclear translocation (C-20), and 24 hours for iNOS expression using a specific antibody (N-20).

[1] = LPS binding assay (coated wells); parameters: species or system E. coli; conditions: FIG. 4B
Method: (§1) K. pneumoniae (3×10^5 CFU/well), E. coli O111:B4 smooth-type LPS (5 μg/well), or bovine serum albumin (BSA, 5 μg/well) in 100 μL of bicarbonate buffer (pH 9.6) were coated onto wells of high-binding microtiter plate (Corning Costar, Cambridge, Mass.). Nonspecific binding was blocked with binding buffer (20 mM Tris-HCl, pH 7.4, 0.15 M NaCl, 5 mM CaCl2) containing 50 mg/mL BSA. Various concentrations of rTMD proteins without or with CD14 (10 μg/mL; R&D Systems) in binding buffer containing 1 mg/mL BSA were added to wells and incubated for 2 hours. In some experiments, 0.2 M mannose, 5 mM EDTA, or Le^y were included in the binding buffer to compete with LPS and rTMD1 binding. Antibody against the c-Myc epitope of the rTMD proteins was added to wells and incubated for 2 hours, and peroxidase-labeled secondary antibody followed. Binding of rTMD proteins was detected by measuring absorbance at 450 nm.

binding of CD14 to LPS = molecular target: T1, binding of CD14 to LPS (Homo sapiens, UniProt P08571); assay: Blockage of the binding of CD14 to LPS; conditions: FIG. 4D
T1 construct: purchased R&D Systems
T1 sequence (P08571 20-352 limits assumed): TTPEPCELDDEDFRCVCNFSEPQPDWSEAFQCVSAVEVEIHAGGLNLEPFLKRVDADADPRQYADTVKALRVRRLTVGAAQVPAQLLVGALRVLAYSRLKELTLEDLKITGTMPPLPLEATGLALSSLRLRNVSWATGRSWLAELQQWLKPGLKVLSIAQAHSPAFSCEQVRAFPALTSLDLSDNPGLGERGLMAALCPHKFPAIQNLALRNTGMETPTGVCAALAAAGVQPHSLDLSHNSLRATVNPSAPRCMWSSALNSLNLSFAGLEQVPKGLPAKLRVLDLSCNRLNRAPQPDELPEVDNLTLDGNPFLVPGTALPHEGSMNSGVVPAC
Method: as §1

THP-1 cells = assay: THP-1 phagocytosis assay with FITC-labeled K. pneumoniae; type: cell-based, Human; conditions: activated THP-1 cells
Method: Human leukemia monocytic THP-1 cells and murine macrophage cell line RAW 264.7 were obtained from the American Type Culture Collection. THP-1 cells were grown in suspension in RPMI-1640 supplemented with 10 mM HEPES, 1 mM sodium pyruvate, 0.1% β-mercaptoethanol, 100 U/ml penicillin, 100 µg/ml streptomycin, and 10% fetal bovine serum (FBS). RAW 264.7 cells were grown as an adhered layer in Dulbecco's modified Eagle's medium with 4 mM L-glutamine adjusted to contain 1.5 g/l sodium bicarbonate and 4.5 g/l glucose, 100 U/ml penicillin, […] streptomycin, and 10% FBS under a humidified 5% CO2 atmosphere at 37° C. For differentiation, THP-1 cells were plated in medium containing 10 nM PMA and allowed to adhere for 18 h.
FITC-labeled K. pneumoniae (1×10^5 CFU/well) were pre-incubated with rTMD1 at 37° C. for 30 minutes before adding to differentiated THP-1 cells. After incubation for 2 hours the THP-1 cells were washed twice with ice-cold PBS prior to fluorescence microscopy, or were further trypsinized, resuspended in PBS, and analyzed in a fluorescence-activated cell sorter (FACS; Becton Dickinson, San Jose, Calif.) to measure THP-1 cell intracellular fluorescence. Green fluorescence data from 10,000 events (cells) per condition collected at 530 nm on a log scale were analyzed with CellQuest™ software (Becton Dickinson).

B1: rTMD1: recombinant human thrombomodulin N-terminal lectin-like domain (residues Ala1-Ala155) with 6×His tag and c-Myc epitope, Pichia pastoris expressed (protein)
chain: EFAPAEPQPGGSQCVEHDCFALYPGPATFLNASQICDGLRGHLMTVRSSVAADVISLLLNGDGGVGRRRLWIGLQLPPGCGDPKRLGPLRGFQWVTGDNNTSYSRWARLDLNGAPLCGPLCVAVSAAEATVPSEPIWEEQQCEVKADGFLCEFHFPAYLEDDDDKIEQKLISEEDLNSAVDHHHHHH
modifications: left off: small tags and cut ends
LPS-induced nuclear translocation of NF-κB (RAW 264.7 cells; FIG. 1E): inhibited in a dose-dependent fashion
LPS-induced phosphorylation of ERK1/2 and p38 (RAW 264.7 cells; FIG. 1F): inhibited
LPS-induced phosphorylation and degradation of IκBα (RAW 264.7 cells; LPS 100 ng/mL, rTMD1 50 μg/mL (2.18 nmole/mL)): totally reversed
iNOS induction by LPS (RAW 264.7 cells; RAW 264.7 cells, FIG. 1G): inhibited
binding to LPS [1]: specifically bound
Kd ([1]; estimated from the 50% saturation, read-out: apparent Kd of the binding of LPS with rTMD1): ~1600 nM
binding of CD14 to LPS (binding of CD14 to LPS): inhibited
bacterial phagocytosis by THP-1 cells (THP-1 cells): markedly increased
